Article PMC4399976 (The Biochemical journal, 2015)

Biological target: wild-type (WT) proMMP-9 trimer (reduction-sensitive homomultimer) (human, UniProt P14780 20-707)
Experiment: SPR

Sequence of wild-type (WT) proMMP-9 trimer (reduction-sensitive homomultimer) (P14780 20-707): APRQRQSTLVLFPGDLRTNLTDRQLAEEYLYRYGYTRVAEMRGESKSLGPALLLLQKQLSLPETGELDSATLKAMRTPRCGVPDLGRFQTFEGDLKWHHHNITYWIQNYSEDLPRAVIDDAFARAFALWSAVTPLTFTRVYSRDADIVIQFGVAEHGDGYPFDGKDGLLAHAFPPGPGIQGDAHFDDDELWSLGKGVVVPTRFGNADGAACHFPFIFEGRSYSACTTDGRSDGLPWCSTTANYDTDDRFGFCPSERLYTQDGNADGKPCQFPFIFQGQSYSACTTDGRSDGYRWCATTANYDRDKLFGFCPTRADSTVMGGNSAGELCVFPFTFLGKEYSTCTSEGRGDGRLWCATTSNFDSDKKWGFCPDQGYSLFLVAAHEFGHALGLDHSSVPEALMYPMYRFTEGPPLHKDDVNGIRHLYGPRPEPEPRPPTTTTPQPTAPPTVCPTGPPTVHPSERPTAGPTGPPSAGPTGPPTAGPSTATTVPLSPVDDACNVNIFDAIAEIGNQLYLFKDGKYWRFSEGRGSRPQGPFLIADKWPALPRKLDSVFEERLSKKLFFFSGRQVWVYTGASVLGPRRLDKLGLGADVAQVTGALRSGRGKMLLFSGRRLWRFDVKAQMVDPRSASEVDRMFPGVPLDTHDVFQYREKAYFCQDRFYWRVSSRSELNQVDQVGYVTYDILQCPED

B1: tissue inhibitor of metalloproteinases-1 (TIMP-1), recombinant human (natural protein)
chain: not shown
- Kd: 0.4 nM
